Laboratory results reported in the supplement of paper PMC9233669.
Variants at the floor of the assay were thinned out.

Legend:
[1] = tested on: biotinyl-Phe-oxazolone; experiment: self-aminoacylation, catalytic enhancement (BFO) (fold over background); higher = more active; k-Seq, kA / k0A0; sequences stand for … in GGGAAUGGAUCCACAUCUACGAAUUC…UUCACUGCAGACUUGACGAAGCUG
Outline: (§1)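 Each biotinyl-aminoacyl-oxazolone, at 2–1250 μM, was incubated with mutagenized RNA pools (0.43 μM) carrying a 21-nt variable region. The 50 μL reactions contained HEPES/NaCl/KCl/MgCl2/CaCl2 buffer with 5% acetonitrile at pH 6.9–7.0 and ran for 90 minutes at room temperature. After streptavidin capture, RNA was measured by qPCR in triplicate and by Illumina sequencing, and catalytic enhancement was calculated as median kA over the uncatalyzed rate from a pseudo-first-order fit of per-sequence fraction reacted.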

[2] = tested on: biotinyl-Leu-oxazolone; experiment: self-aminoacylation, catalytic enhancement (BLO) (fold over background); higher = more active; k-Seq, kA / k0A0; sequences stand for … in GGGAAUGGAUCCACAUCUACGAAUUC…UUCACUGCAGACUUGACGAAGCUG
Outline: as §1

[3] = tested on: biotinyl-Val-oxazolone; experiment: self-aminoacylation, catalytic enhancement (BVO) (fold over background); higher = more active; k-Seq, kA / k0A0; sequences stand for … in GGGAAUGGAUCCACAUCUACGAAUUC…UUCACUGCAGACUUGACGAAGCUG
Outline: as §1

[4] = tested on: biotinyl-Trp-oxazolone; experiment: self-aminoacylation, catalytic enhancement (BWO) (fold over background); higher = more active; k-Seq, kA / k0A0; sequences stand for … in GGGAAUGGAUCCACAUCUACGAAUUC…UUCACUGCAGACUUGACGAAGCUG
Outline: as §1

[5] = tested on: biotinyl-Met-oxazolone; experiment: self-aminoacylation, catalytic enhancement (BMO) (fold over background); higher = more active; k-Seq, kA / k0A0; sequences stand for … in GGGAAUGGAUCCACAUCUACGAAUUC…UUCACUGCAGACUUGACGAAGCUG
Outline: as §1

[6] = tested on: biotinyl-Ile-oxazolone; experiment: self-aminoacylation, catalytic enhancement (BIO) (fold over background); higher = more active; k-Seq, kA / k0A0; sequences stand for … in GGGAAUGGAUCCACAUCUACGAAUUC…UUCACUGCAGACUUGACGAAGCUG
Outline: as §1

Sequence | self-aminoacylation [1] | self-aminoacylation [2] | self-aminoacylation [3] | self-aminoacylation [4] | self-aminoacylation [5] | self-aminoacylation [6]
AUUAACCUGUUCAUCGAGUGA [Fam2.1 aminoacylation ribozyme variant] | 15.8 | 4.93 | 2.4 | 5.29 | 4.16 | 2.4
AUUAAUCUAGGUCAUCGGGUG [Fam2.2 aminoacylation ribozyme variant] | 15 | 4.65 | 2.72 | 4.05 | 3.43 | 2.73
AUUACACUAGUCAUCGAGUGA [Fam2.1 aminoacylation ribozyme variant] | 16.9 | 5.19 | 2.51 | 6.55 | 4.79 | 3.05
AUUACACUGCUCAUCGAGUGA [Fam2.1 aminoacylation ribozyme variant] | 1.51 | 1.72 | 1.61 | 2.31 | 1.8 | 1.55
AUUACACUGGGCAUCGAGUGA [Fam2.1 aminoacylation ribozyme variant] | 27.1 | 6.5 | 3.44 | 7.85 | 5.92 | 3.53
AUUACACUGGUCAACGAGUGA [Fam2.1 aminoacylation ribozyme variant] | 22.6 | 5.07 | 2.79 | 7.54 | 5.3 | 2.78
AUUACACUGGUCAUCGAAUGA [Fam2.1 aminoacylation ribozyme variant] | 0.652 | 0.978 | 1.25 | 1.15 | 0.931 | 1.12
AUUACACUGGUCUUCGAGUGA [Fam2.1 aminoacylation ribozyme variant] | 18.8 | 4.42 | 2.87 | 6.04 | 3.75 | 2.75
AUUACACUGGUGAUCGAGUGA [Fam2.1 aminoacylation ribozyme variant] | 20.9 | 4.21 | 2.42 | 5.92 | 4.88 | 2.33
AUUACACUGUUCAUCGAGUGA [Fam2.1 aminoacylation ribozyme variant] | 3.06 | 2.97 | 2.17 | 4.78 | 3.76 | 2.01
AUUACCAUGAUCAUCGAGUGA [Fam2.1 aminoacylation ribozyme variant] | 56.1 | 11.6 | 5.53 | 14.6 | 11.1 | 5.54
AUUACCAUGGACAUCGAGUGA [Fam2.1 aminoacylation ribozyme variant] | 24.1 | 6.81 | 3.14 | 8.17 | 6.51 | 2.91
AUUACCAUGGCCAUCGAGUGA [Fam2.1 aminoacylation ribozyme variant] | 2.77 | 3.1 | 2.27 | 3.98 | 2.67 | 1.83
AUUACCAUGGUAAUCGAGUGA [Fam2.1 aminoacylation ribozyme variant] | 50.3 | 8.44 | 3.89 | 10.7 | 8.72 | 3.78
AUUACCAUGGUCAACGAGUGA [Fam2.1 aminoacylation ribozyme variant] | 32.6 | 7.89 | 4.12 | 10 | 7.33 | 4.28
AUUACCAUGGUCAUCGAGUGU [Fam2.1 aminoacylation ribozyme variant] | 4.69 | 4.6 | 2.78 | 6.03 | 4.53 | 2.55
AUUACCAUGUUCAUCGAGUGA [Fam2.1 aminoacylation ribozyme variant] | 36.4 | 7.2 | 3.79 | 9.17 | 7.52 | 4.04
AUUACCCACGUCAUCGAGUGA [Fam2.1 aminoacylation ribozyme variant] | 15.6 | 4.38 | 2.9 | 4.53 | 4.44 | 2.46
AUUACCCAGGACAUCGAGUGA [Fam2.1 aminoacylation ribozyme variant] | 56.4 | 7.26 | 3.9 | 8.66 | 8.33 | 3.56
AUUACCCAGGGCAUCGAGUGA [Fam2.1 aminoacylation ribozyme variant] | 21.4 | 6.33 | 3.57 | 6.92 | 6.06 | 3.27
AUUACCCAGGUCAACGAGUGA [Fam2.1 aminoacylation ribozyme variant] | 24.9 | 6.2 | 3.76 | 7.71 | 7.03 | 3.57
AUUACCCAGGUCAUAGAGUGA [Fam2.1 aminoacylation ribozyme variant] | 37.5 | 9.64 | 5.27 | 11.3 | 10.7 | 4.85
